Results as given in patent US7919091B2, “Lipolysis stimulated receptor (LSR) specific antibodies” (Serono Genetics Institute S.A., priority 1997, dated 2011).

B1: AdipoQ: mouse recombinant AdipoQ protein with hexahistidine peptide, expressed in E. coli; homologue of complement C1q (protein)
chain: SHAEDDVTTTEELAPALVPPPKGTCAGWMAGIPGHPGHNGTPGRDGRDGTPGEKGEKGDAGLLGPKGETGDVGMTGAEGPRGFPGTPGRKGEPGEAAYVYRSAFSVGLETRVTVPNVPIRFTKIFYNQQNHYDGSTGKFYCNIPGLYYFSYHITVYMKDVKVSLFKKDKAVLFTYDQYQEKNVDQASGSVLLHLEVGDQVWLQVYGDGDHNGLYADNVNDSTFTGFLLYHDTN
modifications: left off: small tags and cut ends
notes: mouse recombinant AdipoQ protein with hexahistidine peptide, expressed in E. coli; homologue of complement C1q
B2: lactoferrin: human lactoferrin (Serva), blocks the activity of LSR (protein, UniProt P02788 20-710, looked up)
Lactotransferrin: GRRRSVQWCAVSQPEATKCFQWQRNMRKVRGPPVSCIKRDSPIQCIQAIAENRADAVTLDGGFIYEAGLAPYKLRPVAAEVYGTERQPRTHYYAVAVVKKGGSFQLNELQGLKSCHTGLRRTAGWNVPIGTLRPFLNWTGPPEPIEAAVARFFSASCVPGADKGQFPNLCRLCAGTGENKCAFSSQEPYFSYSGAFKCLRDGAGDVAFIRESTVFEDLSDEAERDEYELLCPDNTRKPVDKFKDCHLARVPSHAVVARSVNGKEDAIWNLLRQAQEKFGKDKSPKFQLFGSPSGQKDLLFKDSAIGFSRVPPRIDSGLYLGSGYFTAIQNLRKSEEEVAARRARVVWCAVGEQELRKCNQWSGLSEGSVTCSSASTTEDCIALVLKGEADAMSLDGGYVYTAGKCGLVPVLAENYKSQQSSDPDPNCVDRPVEGYLAVAVVRRSDTSLTWNSVKGKKSCHTAVDRTAGWNIPMGLLFNQTGSCKFDEYFSQSCAPGSDPRSNLCALCIGDEQGENKCVPNSNERYYGYTGAFRCLAENAGDVAFVKDVTVLQNTDGNNNEAWAKDLKLADFALLCLDGKRKPVTEARSCHLAMAPNHAVVSRMDKVERLKQVLLHQQAKFGRNGSDCPDKFCLFQSETKNLLFNDNTECLARLHGKTTYEKYLGPQYVAGITNLKKCSTSPLLEACEFLRK

Legend:
[1] = Food intake in ob/ob and db/db mice under AdipoQ; format: in vivo; settings: ob/ob and db/db obese mice, 100 μg daily for 5 days
Method: Recombinant AdipoQ protein (100 μg) or PBS alone were injected daily for 5 days through the caudal vein of ob/ob or db/db mice kept in a metabolic cage. The mice are weighed each day and the quantity of food consumed was also measured. The results correspond to a mean food intake and a standard deviation for 4 mice in each group.

[2] = Postprandial lipemic response in rats after AdipoQ injection; format: in vivo, rat; settings: high-fat meal, 1 mg AdipoQ i.v.
Method: Male Sprague-Dawley rats (400-450 g), starved since the day before, were force-fed with a meal which was very high in fat (t=0) (60% fatty acid of which 37% saturated, 27% monounsaturated and 36% polyunsaturated, 20% protein and 20% carbohydrate, the total providing 56 kcal/kg of body weight) and received immediately afterwards an intravenous injection (femoral vein) of either 300 μl of PBS alone or of the same volume containing 1 mg of mouse recombinant AdipoQ protein. Blood samples were collected at various times (0, 2, 4 and 6 h). The quantity of plasma triglycerides was measured using an enzymatic kit. The results are presented as mean values and standard deviations on 3 animals.

LSR = target: T1, LSR (Rattus norvegicus, UniProt Q9WU74); assay: Effect of AdipoQ on LSR activity in primary culture of rat hepatocytes; format: cell-based; settings: 25 ng/ml AdipoQ, in the presence of oleate
T1 construct: from tissue; host or cells: rat liver plasma membranes / solubilized rat liver membrane proteins
T1 sequence (Q9WU74 36-593): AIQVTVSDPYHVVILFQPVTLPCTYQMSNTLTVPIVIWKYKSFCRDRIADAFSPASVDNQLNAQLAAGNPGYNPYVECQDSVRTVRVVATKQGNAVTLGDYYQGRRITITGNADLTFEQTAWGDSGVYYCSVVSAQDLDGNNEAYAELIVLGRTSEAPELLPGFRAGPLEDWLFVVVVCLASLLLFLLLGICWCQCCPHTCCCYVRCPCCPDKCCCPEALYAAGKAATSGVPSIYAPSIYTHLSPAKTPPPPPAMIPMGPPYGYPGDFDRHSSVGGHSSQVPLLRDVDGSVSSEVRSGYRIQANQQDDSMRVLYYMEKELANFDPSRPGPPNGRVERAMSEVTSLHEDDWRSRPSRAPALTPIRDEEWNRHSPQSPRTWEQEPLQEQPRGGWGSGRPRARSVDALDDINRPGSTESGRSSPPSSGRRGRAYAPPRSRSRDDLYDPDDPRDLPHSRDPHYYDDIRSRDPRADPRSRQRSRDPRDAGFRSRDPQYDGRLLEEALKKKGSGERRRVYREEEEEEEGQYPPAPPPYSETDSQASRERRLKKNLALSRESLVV
T1 sequence (Q9WU74 36-525 isoform Q9WU74-3 limits assumed): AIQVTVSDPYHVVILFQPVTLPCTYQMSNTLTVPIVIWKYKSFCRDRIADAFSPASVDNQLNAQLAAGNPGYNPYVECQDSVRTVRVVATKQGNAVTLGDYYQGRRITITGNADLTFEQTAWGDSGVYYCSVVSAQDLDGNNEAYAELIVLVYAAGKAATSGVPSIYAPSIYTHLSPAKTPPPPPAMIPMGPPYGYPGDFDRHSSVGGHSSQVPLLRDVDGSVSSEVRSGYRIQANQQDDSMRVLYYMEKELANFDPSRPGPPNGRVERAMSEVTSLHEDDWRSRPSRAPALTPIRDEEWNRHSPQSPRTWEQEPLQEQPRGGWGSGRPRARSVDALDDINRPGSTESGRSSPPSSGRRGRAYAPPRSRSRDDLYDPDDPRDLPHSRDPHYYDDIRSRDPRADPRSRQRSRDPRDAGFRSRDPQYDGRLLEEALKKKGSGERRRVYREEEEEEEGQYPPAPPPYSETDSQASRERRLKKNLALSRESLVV
Method: Primary cultures of rat hepatocytes were prepared and distributed into 6-well plates (9000,000 cells/well). After 48 h, the cells were washed once with PBS (2 ml/well) and incubated for 30 min at 37° C. with 20 ng/ml of recombinant murine leptin. The cells were then incubated for 4 h at 37° C. with increasing concentrations of recombinant murine AdipoQ proteins and 20 μg/ml ^125I-LDL in the presence or in the absence of 0.5 mM oleate. The binding, internalization and degradation of lipoproteins were measured as indicated in Example 1.

[3] = Change in weight and plasma triglycerides in rats under AdipoQ infusion; format: in vivo, rat; settings: 3-day ip infusion
Method: Osmotic pumps were surgically inserted into the abdominal cavities of 12 Sprague-Dawley male rats of 400-450 g. The osmotic pumps contained either 2 ml of PBS (phosphate buffered saline), pH 7.4 (control 6 rats), or 2 ml of recombinant AdipoQ protein (5 mg/ml PBS, 6 rats). These pumps were designed to deliver 10 μl/h (50 μg AdipoQ/h). The animals are weighed and individually housed in metabolic cages. 3 animals in each group are subjected ad libitum either to a normal diet or to a fatty diet (day 0). The fatty diet consists of a normal diet supplemented with 2% (w/w) cholesterol, 10% (w/w) saturated fatty acid in the form of vegetaline, [lacuna] % (w/w) sunflower oil and 15% (w/w) sucrose. On day 3, the animals are weighed and blood samples are obtained from the caudal vein. The quantity of plasma triglycerides was measured using an enzymatic kit.

[4] = Postprandial lipemic response in mice after a high-fat meal; format: in vivo; settings: ob/ob mice, 2.5 mg lactoferrin with 0.5 μg leptin i.v.
Method: Control, ob/ob and db/db mice, starved since the day before, are force-fed with a meal which is very high in fat [60% fat (37% saturated, 27% monounsaturated and 36% polyunsaturated fatty acids), 20% protein and 20% carbohydrate] providing 56 kcal of energy/kg of the weight of the animal. Immediately after the meal (time=0 hour), the mice are injected intravenously with 200 μl of physiological saline solution. At various times, 20 μl of blood are collected via the caudal vein in tubes containing 90 μg of disodium EDTA, and after separating the plasma by centrifugation, the plasma concentration of triglyceridemia is determined with the aid of an enzymatic assay kit. Each point on the curves presented corresponds to the mean with standard deviation obtained for 3 measurements per animal and for 3 different animals.
The procedure is the same as above, except that immediately after the meal (time=0 hour), the mice are injected intravenously with either 200 μl of physiological saline solution, or 200 μl of the same solution containing 50 μg of murine recombinant leptin.
ob/ob mice, starved since the day before, are force-fed with a meal identical to that described above. […] Blood is collected between 2 and 3 hours after the meal and the plasma concentration of triglycerides (TG) is measured. […]

Row | Molecule | food intake [1] | postprandial lipemic response [2] | LSR activity (LSR) | level of plasma triglycerides [3] | weight ([3]; normal or fatty diet) | reduction in the lipemic response induced by leptin [4]
1 | B1 | reduces | massively reduce | increases | reduced | loss in weight | 
2 | B2 |  |  |  |  |  | suppressed
